Laboratory results from the nanobody polyreactivity screen of Harvey et al. (2022).

Experiment: yeast display, Sf9 membrane polyspecificity reagent, FACS + sequencing; frameworks hold sequencing errors
Method in brief: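 Sorting gates, low and high (top ~1%), were placed on anti-HA fluorescence to track expression and on streptavidin fluorescence to track reagent binding. A clone's polyreactivity label is taken from the gate it came out of. The reagent was 10% biotinylated, detergent-solubilized Sf9 membrane, applied for 1 hour at 4 °C to galactose-induced yeast display cells.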

Row | Sequence | polyreactivity (PSR sort gate)
1 | QVQLVESGGGLVQAGGSLRLSCAAYGSTFTSYAMGWYRQAPGKERELVAAISSSGTRTYYADSVKGRFTISRDNAKNTVYLQMNSLKPEDTAVYYCAKASPYSKLYYWGQGTQGTVSS | high polyreactivity
2 | QVQLVESGGGLVQAGGSLRLSCAAYGSTFWANAMGWYRQAPGKERELVAAIRGTGGSTYADSVKGRFTISRDNAKNTVYLQMNSLKPEDTAVYYCNAKGRGWTAQYDYWGQGTQVTVSS | low polyreactivity
3 | QVQLVESGGGLVQAGGSLRLSCAAYGSTLDGNAMGWYRQAPGKERELVAGLDTGGSTYYADSVKGRFTISRDNAKYTVYLQLIRLKPEDTAVYDCAATDREDYDYWGQGTQVTVSS | low polyreactivity
4 | QVQLVESGGGLVQAGGSLRLSCAAYGSTLSPYTMGWYRQAPGKERELVAAITQSGGSTYYADSVKGRFTISRDKAKYTVYLQMNSLKPEDTAVYYCNRDYNADYDWGQGTQVTVSS | high polyreactivity
5 | QVQLVESGGGLVQAGGSLRLSCAAYGYIFLRNAMGWYRQAPGKERELVAAIRRTGGSTYYADSVKGRFTISRDNAKNTVYLQMNSLKPEDTAVYYCAKRSYTGYEYWGQGTQVTVSS | low polyreactivity
6 | QVQLVESGGGLVQAGGSLRLSCAAYRFIFATNTMGCYRQAPGKETELVAASSTYYADSVNGRFTISRDNAKNTVYLQMNSLKPEDNAVYYCNADRDSYIGFVDWAGEYWGQGTQVTVSS | low polyreactivity
7 | QVQLVESGGGLVQAGGSLRLSCAAYVFIFYVYAMGWYRQAHGKERELVAAISGGGDSTYYADSVKGRFTISRDNAKNTVYLQMNSLKPEDTAVYYCATRRYPEVVNGEYGYWGQGTQVTVSS | low polyreactivity
8 | QVQLVESGGGLVQAGGSLRLSCACSGHTFSSYAIGWYRQAPGKERELVAAISVSATRTYYADSVKGRFTISRDNEKNTVYLQMNSLKPEDTAVYYFAARPVQFTYGYWGLGTQVTVSS | high polyreactivity
9 | QVQLVESGGGLVQAGGSLRLSCADSGFIFVPYAMGWYRQAPGKERELVATITGRGDSTYYADSVKWRFTISRDNALNTVYLQMNSLKTEDTSLFYCAVDPIRLWAYDYWGQGTQVTVSS | low polyreactivity
10 | QVQLVESGGGLVQAGGSLRLSCADSGFTFRYNAIGSYRQAPGKERELVARISSTGGGTSYADSVKGRFTISRDNAKNTVYLQMNSLKPEDTAVYYCNKRSWGYGRGLPDSDYWGQGTQVTVSS | low polyreactivity
11 | QVQLVESGGGLVQAGGSLRLSCADSGGIFLSYGMGWYRQAPGKERELVAAISRNDGRTYYADSVKGRFTISRDNAKNTVYLQMNSLKPEDTAVYYCAADPEYYYYIYVYVQYDYWGQGTQVTVSS | low polyreactivity
12 | QVQLVESGGGLVQAGGSLRLSCADSGITIVWYAIGWYRQAPGKERELVAAISRGGGSTYYADSVKGRFTISRDNAKNTVYLQMNSLKPEDTAVYYCAASGGYTFDWLEFDYWGQGTQVTVSS | low polyreactivity
13 | QVQLVESGGGLVQAGGSLRLSCADSGLTFYDYAMGWYRQAPGKERELVADIDFNGGSTSYADSVKGRFTISRDNAKNTVYLQMNSLKPEDTAVYYCNTRDRGDVVTGLDYWGQGTQVTVSS | low polyreactivity
14 | QVQLVESGGGLVQAGGSLRLSCADSGNIIWGNAIGWYRQAPGKERELVAAISRRSGSTYYADSVKGRFTISRDNAKNTVYLQMNSLKPEDTAVYYCNTAGRVGTYDYWGQGTQVTVSS | high polyreactivity
15 | QVQLVESGGGLVQAGGSLRLSCADSGNTFYGYAMGWSRQSPGTERELVASITLSGDSTYYADSVKGRFTISRDNAKNTVYLQMNSLKPEDTAVYYCAGVYTYPLGYYHYTYDYWGQGTQVTVSS | low polyreactivity
16 | QVQLVESGGGLVQAGGSLRLSCADSGRIFLTNAMGWYRQAPGKERELGATITSGGSTNYADSVKGRFTISRDNAKNTVYLQMNSLKPVDTAVYDCAADWEFGFDYWGQGTQVTVSS | low polyreactivity
17 | QVQLVESGGGLVQAGGSLRLSCADSGRIFVAYAMGWYRQAPGKERELFADITWSGDITYYADSVKGRFTISRDNAKNTVYLQMNSLKPEDTAVYYCAADYHRRRTDYDYWGQVTQVTVSS | low polyreactivity
18 | QVQLVESGGGLVQAGGSLRLSCADSGRIFVLYAMGWYRQAPGKERELVAAISRSSTSTYYADSVKGRFTISRDNAKNTGYLQMNSLKPEDTAVYYCAARGRYAYPRYGYYPVNYWGQGTQVTVSS | high polyreactivity
19 | QVQLVESGGGLVQAGGSLRLSCADSGRIFWTNAMVWYRQAPGKERELVAAISYNGASTFYADSVKGRFTISRDNAKNTVSLQMNSLKPEDTAVYYCNAYSSRYRYNYWGQGTQVTVSS | high polyreactivity
20 | QVQLVESGGGLVQAGGSLRLSCADSGRILTFNAMGWYRQAPGKERELVASISNGGSTNYADSVKGRFTISRDNAKNTVYLQMNSLKPEDTAVYYCDADWRQGMWYGYYYWGQGTQVTVSS | low polyreactivity
21 | QVQLVESGGGLVQAGGSLRLSCADSGRTFYQNAKGWYRQAPGKEREFVAAISWSSGSTYYADSVKGRFTISRDYAKNTVYLQMNSLKPEDTAVYYCAAYTSFPYIWYGYWGQGTQVTVSS | high polyreactivity
22 | QVQLVESGGGLVQAGGSLRLSCADSGRTIPFYAMGWYRQAPGKERELVAAISSSAGRTYYADSVKGRFTISRDNAKNTVSLQMNSLKPEDTAVYYCAARLYGRYRYDYWGQGTQVTVSS | low polyreactivity

Row | Sequence | polyreactivity (PSR sort gate)
23 | QVQLVESGGGLVQAGGSLRLSCADSGSIFEVYAMGWYRQAAGKERELVAAINYTGGSTYYADSVKGRFTISRDNAKITVYLQMNSLKPEDTAVYYCARDTSGNGTRYDYWGQGTQVTVSS | low polyreactivity
24 | QVQLVESGGGLVQAGGSLRLSCADSGSIFLPYAMGCYRKAPGKERELVAAITWGGDSTYADSVKGRFTISRDNAKNTVYLQMNSQKPEDTAVYYCAAGAGFESDYWGQGTQVTVSS | low polyreactivity
25 | QVQLVESGGGLVQAGGSLRLSCADSGSIFQYNTMGWYRQAPGKERELVADINGRGGSTYYADSVKGRFTISRDNAKNTVYLQMNSLKPEDTAVYYCAVEGVSTYLWTSYGYWGQGTQVTVSS | low polyreactivity
26 | QVQLVESGGGLVQAGGSLRLSCADSGSIFYRYAMGWYRQAPGKERELGAAISQSGGSTYYADSVKGRFTISRDNAKNTVYLQMNSLKPEDTAVYYCQLIRRGHDYWGQGTQVTVSS | high polyreactivity
27 | QVQLVESGGGLVQAGGSLRLSCADSGSIGLYAMGWYRQAPGKETELVAVISRNGGSTYYADSVKGRFTISRDNAKNTVYLQMNSLKPEDTAVYYCAKRRLERGTGDYWGQGTQVTVSS | high polyreactivity
28 | QVQLVESGGGLVQAGGSLRLSCADSGSIQYYAMGWYRQAPGKERELVAAITWSGVSTSYADSVKGRFTISRDNAKNTVYLQMNRLKPEDTAVYYCNKDPGTLYGDLDSWGQGTQVTVSS | low polyreactivity
29 | QVQLVESGGGLVQAGGSLRLSCADSGSTFDDNAMGWYRQAPGKDRELVASITYRGGSTYYADSVKGRFTISRDNAKNTVYLQMNSLKPEDTAVYYCAKGHYFKYDYWGQGTQVTVSS | low polyreactivity
30 | QVQLVESGGGLVQAGGSLRLSCADSGSTFEANAMGWYRQAPGKERELVAAISSGGRTYYADSEKGRFTISRDNAKNTVYLKRNSLKPEDTAVYYCAAYVRRGFDWGQGTQVTVSS | high polyreactivity
31 | QVQLVESGGGLVQAGGSLRLSCADSGSTFRRKVMGWYRQAPGKERELVASIRSGGTTNYADSVKGRFTISRDNAKNTVYLQMNSLKPEDTAVYYCAAARSRGYYRASAEVLYGYWGQGTQVTVSS | high polyreactivity
32 | QVQLVESGGGLVQAGGSLRLSCADSGSTFSPDAMGWYIQAPGKERALVAAIRYSGTSTYYADSVKGRFTISRDNAKKTVYLQMNSLKPEDTAVYYCNTVFKYQGVRPYGYWGQGTQVTVSS | high polyreactivity
33 | QVQLVESGGGLVQAGGSLRLSCADSGSTFWFYTMGWYRQAPGKERELVATITSGGSTNYADSVKGRFTISRDNAKNTVYLQMNSLKPEDTAVYYCAASSVLTNHDYWGQGTQVTVSS | low polyreactivity
34 | QVQLVESGGGLVQAGGSLRLSCADSGYTFSPNAMGWYRQAPGKELELVAAISSAVSTDYADSVKGRFTISRDNAKNTVYLQMNSLKPEDTAVYYCAADDQYRVTLGYDYWGQGTQVTVSS | low polyreactivity
35 | QVQLVESGGGLVQAGGSLRLSCADSGYTFVYNAMGWYRQPPGKEREFVAAITWSGTSTRYADSVKGRFTISRDNAKNTVYLQMNSLKPEDTAVYYCAALGSGVPRYYYWGQGTQVTVSS | high polyreactivity
36 | QVQLVESGGGLVQAGGSLRLSCAFYYGMGWYRQAPGKERELVAAITLGGGSTYYADSVKGRFTISRDNAKNTVYLQMNSLKPEDTAVYYCNVTDVTEPSLIDGYYWGQGTQVTVSS | low polyreactivity
37 | QVQLVESGGGLVQAGGSLRLSCAGSGATYERYAMGWSRPAPGKERALVAASNKRGGNTYYADSVKGRFTISRDNAKKTVYLQMNSLKPEDTAVYYCAADHLDRTEFPYYYWGQGTQVTVSS | high polyreactivity
38 | QVQLVESGGGLVQAGGSLRLSCAGSGHIFPYNAMGWYRQGPGKEREFVAAISFRGGSRYYADSEKGRFTISRDNAKNTVYLQMNSLKPEDTAVYYCAKRSYPWGQGTQVTVSS | low polyreactivity
39 | QVQLVESGGGLVQAGGSLRLSCAGSGIIFRGYDMGWYRQAPGKEMELVAAITWRGGSTYYADSVKGRFTISRDNAKNTVYLQMNSLKPEDTAVYYCAAVRKHSWFRHMDYWGQGTLVTVSS | high polyreactivity
40 | QVQLVESGGGLVQAGGSLRLSCAGSGLIFRIYAMGWYTQAPGKEREFVAAIRWRGGSTYYADSVKGRFTISRDNAKNTVYLQMNSLKPEDSAVYYCAVRYCPYRPRLDYWGQGTQVTVSS | high polyreactivity
41 | QVQLVESGGGLVQAGGSLRLSCAGSGRIFFWYVMGWYRQAPGKERELVAAISSGGRTYYADSVKGRFTISRDNAKNTVYLQMNSLKPEDTAVYYCAAVRRYLKAAYGYWGQGTQVTVSS | low polyreactivity
42 | QVQLVESGGGLVQAGGSLRLSCAGSGRIFRTYAMGWFRQAPGKEGEFVAGISRGGSTDYADSVKGRFTISRDNEKNTVYLQMNSLKPEDSAVYYCAAASLRYYSPRVRYPYYYWGQGTQVTVSS | high polyreactivity
43 | QVQLVESGGGLVQAGGSLRLSCAGSGRTFEINAMGWYRQAPGKERELVAAITVSGGSTYYADSVKGRFTISRDNAKNTVYLQMNSLKPEDTAVYYCAVEIVYGQGKEVNSWGQGTQVTVSS | low polyreactivity
